Data set [1] has as its system HU (HU-1/HU-2, hupA + hupB co-expressed) (Escherichia coli). Kind of data set: EMSA. The conditions noted are these: 10 min at 23 C, then 0.8% agarose gel electrophoresis, bound [3H]HU counted in gel slices; binding buffer composition, salt and pH not in the material …; scale: HU dimers bound per plasmid at saturation.
Data set [2] has the same test system. Kind of data set: competition. The conditions noted are these: 10 min at 23 C, then 0.8% agarose gel electrophoresis, bound [3H]HU counted in gel slices; binding buffer composition, salt and pH not in the material ….

Regarding linear pRLM4, in data set [1], the binding signal is 1000.
Take “negatively supercoiled pRLM4 (sigma -0.06)”: in data set [2], the binding signal (fold affinity over linear DNA) stood at 20, the binding signal (fold affinity over relaxed DNA) is greater than 10 and the binding signal (fold affinity over relaxed pRLM4) came to 2. Besides, the binding signal in data set [1] came out at 1000.

The record behind these values is publication PMC8616027.
